Experimental findings from publication PMC9960136, “VH-Based Mini Q-Body: A Novel Quench-Based Immunosensor” (Sensors (Basel, Switzerland), 2023) are described below.

Common to all, as to conditions: both partners purified
The target in experiment [1] is T1, hen egg lysozyme (Gallus gallus (hen), UniProt P00698).
T1 construct: hen egg lysozyme (HEL), lysozyme C of the chicken; No supplier is named for HEL; also called HEL; antigen
Nature of the experiment: ELISA; HEL or BSA (2 μg/mL in 100 μL PBS) coated on microplate wells, 16 h 4 °C; sdAb or mini Q-body added at 2 μg/mL, 1 h 37 °C; bound protein probed with anti-His-HRP.

The next experiment has as its target T2, bovine serum albumin (Bos taurus (bovine), UniProt P02769).
T2 construct: bovine serum albumin (BSA); No supplier is named for BSA; also called BSA; control antigen
Description: other fluorescence titration; de-quenching at one concentration: 10 ng mini Q-body in 250 μL PBST; 10 μM antigen added, measured after 5 min; BSA as control antigen.

In experiment [2] the target is T1, hen egg lysozyme. Description: other fluorescence titration; de-quenching dose response: 10 ng mini Q-body in 250 μL PBST in a quartz cell; antigen added stepwise (0, 1 nM to 10 μM) at 5 min intervals; EC50 by 4-parameter logistic fit.

What is called EC50 is the midpoint of the concentration-response curve. Lower therefore signals a more potent agent.

T2 sequence (P02769 25-607): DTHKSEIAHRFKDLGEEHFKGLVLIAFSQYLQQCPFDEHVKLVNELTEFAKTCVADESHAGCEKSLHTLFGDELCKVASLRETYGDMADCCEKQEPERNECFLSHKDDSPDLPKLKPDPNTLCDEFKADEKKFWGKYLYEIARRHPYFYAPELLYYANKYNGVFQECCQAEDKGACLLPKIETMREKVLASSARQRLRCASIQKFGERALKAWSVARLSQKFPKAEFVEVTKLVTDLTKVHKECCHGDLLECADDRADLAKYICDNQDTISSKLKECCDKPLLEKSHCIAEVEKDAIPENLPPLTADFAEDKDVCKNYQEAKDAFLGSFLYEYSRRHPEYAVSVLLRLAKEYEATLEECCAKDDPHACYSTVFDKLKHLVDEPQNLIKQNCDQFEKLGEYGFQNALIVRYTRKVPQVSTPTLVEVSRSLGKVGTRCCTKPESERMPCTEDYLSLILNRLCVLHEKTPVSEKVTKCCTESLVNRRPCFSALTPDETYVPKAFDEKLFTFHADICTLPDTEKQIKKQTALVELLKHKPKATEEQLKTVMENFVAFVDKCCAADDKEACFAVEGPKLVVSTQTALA
T1 sequence (P00698 19-147): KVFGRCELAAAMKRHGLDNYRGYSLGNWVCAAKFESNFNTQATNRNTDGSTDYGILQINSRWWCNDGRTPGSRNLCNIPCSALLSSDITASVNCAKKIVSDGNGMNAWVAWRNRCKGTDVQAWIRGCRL

B1: TAMRA-C5-labeled C3 W47F mini Q-body (VHH)
VHH: EVQLLESGGGLVQPGGSLRLSCAASGFRDSDEDMGWVRQAPGKGLEFVSSIYGESGSTYYADSVKGRFTISRDNSKNTLYLQMNSLRAEDTAVYYCASYNYYYNVFDYWGQGTLVTVSS
notes: as the VH of m1 with W47F; Same chain as m10 with the dye on the Cys-tag; also called W47F (after labeling with TAMRA-C5); source: labeled with TAMRA-C5; not shown: His-tag, C-terminal, kept
Consider B1, for which the binding result with hen egg lysozyme [1] was “binds”.

B2: C3 mini Q-body labeled with TAMRA-C2 (VHH)
VHH: EVQLLESGGGLVQPGGSLRLSCAASGFRDSDEDMGWVRQAPGKGLEWVSSIYGESGSTYYADSVKGRFTISRDNSKNTLYLQMNSLRAEDTAVYYCASYNYYYNVFDYWGQGTLVTVSS
notes: as the VH of m1; Same chain as m1 with the dye on the Cys-tag; not shown: His-tag, C-terminal, kept
In the case of B2, the binding result in the experiment with bovine serum albumin was “no binding”. This molecule also showed a concentration for a half-maximal effect (EC50) with hen egg lysozyme [2] of 50 nM.

B3: C3 mini Q-body labeled with TAMRA-C6(6) (VHH)
VHH: EVQLLESGGGLVQPGGSLRLSCAASGFRDSDEDMGWVRQAPGKGLEWVSSIYGESGSTYYADSVKGRFTISRDNSKNTLYLQMNSLRAEDTAVYYCASYNYYYNVFDYWGQGTLVTVSS
notes: as for B2
With B3, the binding result with bovine serum albumin is given as “no binding”. The EC50 in the experiment with hen egg lysozyme [2] was found to be 362 nM.

B4: C3 mini Q-body labeled with rhodamine 6G (R6G-C5) (VHH)
VHH: EVQLLESGGGLVQPGGSLRLSCAASGFRDSDEDMGWVRQAPGKGLEWVSSIYGESGSTYYADSVKGRFTISRDNSKNTLYLQMNSLRAEDTAVYYCASYNYYYNVFDYWGQGTLVTVSS
notes: as the VH of m1; Same chain as m1 with the dye on the Cys-tag; also called R6G-C5 Q-body; Rhodamine 6G-labeled mini Q-body; not shown: His-tag, C-terminal, kept
Consider B4, for which the binding result in the experiment with bovine serum albumin was “no binding”. This molecule also registered a concentration giving a half-maximal response (EC50) in the experiment with hen egg lysozyme [2] of 397 nM.

B5: C3 mini Q-body labeled with TAMRA-C5 (VHH)
VHH: EVQLLESGGGLVQPGGSLRLSCAASGFRDSDEDMGWVRQAPGKGLEWVSSIYGESGSTYYADSVKGRFTISRDNSKNTLYLQMNSLRAEDTAVYYCASYNYYYNVFDYWGQGTLVTVSS
notes: as the VH of m1; Same chain as m1 with the dye on the Cys-tag; also called TAMRA-C5-labeled C3 mini Q-body; TAMRA-labeled C3WT; not shown: His-tag, C-terminal, kept
For B5, in the experiment with bovine serum albumin, the binding result was “no binding”. Further, the concentration giving a half-maximal response (EC50) in the experiment with hen egg lysozyme [2] amounted to 263 nM.

B6: C3 mutant W47F (unlabeled) (VHH)
VHH: EVQLLESGGGLVQPGGSLRLSCAASGFRDSDEDMGWVRQAPGKGLEFVSSIYGESGSTYYADSVKGRFTISRDNSKNTLYLQMNSLRAEDTAVYYCASYNYYYNVFDYWGQGTLVTVSS
notes: as the VH of m1 with W47F; not shown: His-tag, C-terminal, kept
Turning to B6, in the experiment with hen egg lysozyme [1], the binding result is “binds”.

B7: C3 mini Q-body labeled with ATTO520 (VHH)
VHH: EVQLLESGGGLVQPGGSLRLSCAASGFRDSDEDMGWVRQAPGKGLEWVSSIYGESGSTYYADSVKGRFTISRDNSKNTLYLQMNSLRAEDTAVYYCASYNYYYNVFDYWGQGTLVTVSS
notes: as the VH of m1; Same chain as m1 with the dye on the Cys-tag; also called ATTO520-C2; not shown: His-tag, C-terminal, kept
Turning to B7, the binding result with bovine serum albumin was “no binding”. Besides, a half-maximal effect with hen egg lysozyme [2] (EC50) was put at 276 nM.

B8: C3 mini Q-body labeled with TAMRA-C0 (VHH)
VHH: EVQLLESGGGLVQPGGSLRLSCAASGFRDSDEDMGWVRQAPGKGLEWVSSIYGESGSTYYADSVKGRFTISRDNSKNTLYLQMNSLRAEDTAVYYCASYNYYYNVFDYWGQGTLVTVSS
notes: as for B2
Take B8: the binding result in the experiment with bovine serum albumin was “no binding”. Further, the EC50 in the experiment with hen egg lysozyme [2] was 39 nM.

B9: C3 mutant W36F (unlabeled) (VHH)
VHH: EVQLLESGGGLVQPGGSLRLSCAASGFRDSDEDMGFVRQAPGKGLEWVSSIYGESGSTYYADSVKGRFTISRDNSKNTLYLQMNSLRAEDTAVYYCASYNYYYNVFDYWGQGTLVTVSS
notes: as the VH of m1 with W36F; not shown: His-tag, C-terminal, kept
Regarding B9, the binding result in the experiment with hen egg lysozyme [1] was “no binding (tested: 2 μg/mL)”.

B10: C3 mini Q-body labeled with TAMRA-C6(5) (VHH)
VHH: EVQLLESGGGLVQPGGSLRLSCAASGFRDSDEDMGWVRQAPGKGLEWVSSIYGESGSTYYADSVKGRFTISRDNSKNTLYLQMNSLRAEDTAVYYCASYNYYYNVFDYWGQGTLVTVSS
notes: as for B2
Consider B10, for which the binding result in the experiment with bovine serum albumin is “no binding”. In the experiment with hen egg lysozyme [2], the response was half-maximal at 401 nM (EC50).
